Series [1] deals with HtrAHpS221A from H. pylori strain N6 (Helicobacter pylori strain N6) (UniProt B5Z6H5). The experiment in a line: AUC.
Series [2] concerns the molecule itself. The series is described as follows: SEC; Superose 12HR 10/30, 300 mM NaCl, 50 mM Na-phosphate pH 6.5 or 8.0, room temperature; refolded HtrA variant 41 uM without substrate. (In general: In gel filtration, larger molecules generally elute earlier.)

In series [1], “HtrAHpS221A from H. pylori strain N6 (from UniProt B5Z6H5 1-476) (enzyme)” displayed a content of peak 1 (6.1 S) at 0.65 mg/ml of 38%, a content of peak 1 (6.1 S) at 1.6 mg/ml of 38%, a content of peak 1 (6.1 S) at 3.3 mg/ml of 38% and a content of peak 2 (8.9 S) at 3.3 mg/ml of 3.4%. In series [1], the content of peak 3 (10.3 S) at 1.6 mg/ml stood at 8.8%, the content of peak 3 (10.6 S) at 3.3 mg/ml was determined as 5.1%, the content of peak 3 (11.0 S) at 0.65 mg/ml is 12% and the content of peak 4 (12.4 S) at 3.3 mg/ml was found to be 3.8%. In series [1], the content of peak 4 (13.0 S) at 1.6 mg/ml amounted to 3.2%, the content of peak 5 (15.7 S) at 3.3 mg/ml was 9%, the content of peak 5 (15.8 S) at 0.65 mg/ml is 8.1% and the content of peak 5 (15.8 S) at 1.6 mg/ml was found to be 7.9%. Moreover, in series [1], the content of peak 6 (19.5 S) at 3.3 mg/ml is 28%, the content of peak 6 (19.9 S) at 0.65 mg/ml came out at 29%, the content of peak 6 (19.9 S) at 1.6 mg/ml stood at 30% and the content of peak 7 (22.8 S) at 3.3 mg/ml is 3.1%. In series [1], this molecule had a content of peak 8 (24.5 S) at 0.65 mg/ml of 4.8%, a content of peak 8 (25.6 S) at 1.6 mg/ml of 5.9% and a content of peak 8 (25.8 S) at 3.3 mg/ml of 3.6%.

B1: HtrAEcS210A from Escherichia coli (enzyme, UniProt P0C0V0 27-474, looked up)
chain: AETSSATTAQQMPSLAPMLEKVMPSVVSINVEGSTTVNTPRMPRNFQQFFGDDSPFCQEGSPFQSSPFCQGGQGGNGGGQQQKFMALGSGVIIDADKGYVVTNNHVVDNATVIKVQLSDGRKFDAKMVGKDPRSDIALIQIQNPKNLTAIKMADSDALRVGDYTVAIGNPFGLGETVTSGIVSALGRSGLNAENYENFIQTDAAINRGNAGGALVNLNGELIGINTAILAPDGGNIGIGFAIPSNMVKNLTSQMVEYGQVKRGELGIMGTELNSELAKAMKVDAQRGAFVSQVLPNSSAAKAGIKAGDVITSLNGKPISSFAALRAQVGTMPVGSKLTLGLLRDGKQVNVNLELQQSSQNQVDSSSIFNGIEGAEMSNKGKDQGVVVNNVKTGTPAAQIGLKKGDVIIGANQQAVKNIAELRKVLDSKPSVLALNIQRGDSTIYLLMQ
notes: also called DegP S210A; S/A
B1: the “stoichiometry N” value in series [2] was found to be 6.

As a reminder, the stoichiometry N is a count of units in the complex or per binding partner.

The record behind these values is article PMC6509562, “Properties of the HtrA Protease From Bacterium Helicobacter pylori Whose Activity Is Indispensable for Growth Under Stress Conditions” (Frontiers in Microbiology, 2019).
